In a protein production outcome set (Wang et al. 2014):

Assay: label from the status in PepcDB records

Sequence	protein production
MPMHFLLFAVVCSVLVSVLLKLAPRHRIDVFQAITWNYATAALLAWLILHPALDTLRSTTAPWVALLLLAVALPSIFLVLARSVAVAGIVRTDVAQRLSLVLSLAAAFTVFGEPVNGWKLAGLALGMVAIACIVRRPRQHVATDPLPSTTGLPWLVGVWMGFALIDLLLKHIAQAGTPSLTSLTLCFALAFLLMLGVQSVRWARGARPSTRSMLAGVLLGALNFGNILCYVRAHQVLPHSPATVFASMNLGVVVLGALVGKLGFAERLGLRGWLGLALAAPAIAAIAWGIRLG	failed
MPMTLDLQPGQRLARGVARHLRAHGFVSVEEFVPARGLRVDVMGLGPKGEIWVIECKSSRADFQADAKWQGYLEWCDRYFWAVDMEFPAELLPAESGLLIADAYDAEIVRMAPEQKLAPARRKVLIQKFATHAARRLQALRDPEGHGIFE	not failed
MPNILYKIDNQYPYFTKNEKKIAQFILNYPHKVVNMTSQEIANQLETSSTSIIRLSKKVTPGGFNELKTRLSKFLPKEVTQYNVELVDNESTISLKNKLHSRSKAALSNANETINVAIIDEICDLIKNSETIFIYGYGASFVVATDLYQKLSRIGLNIQLVHETHIFTTMLATRNSNDCVIFISNNGTQSEMQSIAKVIADYHIPIATISSTSDNPVAKQSNIVLTYGQTDENEMRMGATTSLFAQMFTIDILYYRYIALNYQSSLDFITQSKIALDNYRKHLSNIDFKH	failed
MPNKVKKRHLLDYSIFIPYLILSIVGLIMVYSSTSALQVMKGFSPTSFVINQVAFWVVGLVAMFFIYKMKTSVFQNRSFIMFAIAVITVMVLAVRIPGIGKEINGARGWIEIGGFSMQPAEYLKIMVVWYLSYILARRQKTINGGMDQFKQAAGRPLMLVFVLIALVAIQPDFGNAAILTLITIVMVLASGINYMYTYLVGGLGILGSITAIQLLIMSKGKIFPARYQYIYNRFAVFKNPFLDERNLGHQLANSYYAISNGGWFGKGLGNSVQKKGFLPEAHTDFIFAITLEELGIIGGLAILGLLMFMIARIILVGVRSKKPFNSLMCIGIGTMLLIQVFINVGGITGIIPLTGITFPFLSQGGNSLLIISIAVAFVLNISADETRQKLENEYYLSLEQNQ	failed
MPNNETEASMRNTLFPTLKWSLLVLMTSLLTACGFHLRGDYDIPQELSRMSLTSYDQYSTFTRMVHRQLRLNKIDLQAPAEDLPNLHLLSESTGERTLSLYQNTRAAEIELTFVASYRVTVPELGSRTFTTSVTRSYLDNPLTALAKSVERDMIEDEMRKLAASQIVRQMARLKADFARKTLDDESIEGKGITDYRVDTQEVANPVSTEGSSELEHHHHHH	not failed
MPNNHDVNPYGIAFVPAGLPAGSALQAGDVVVSNFNAASNKQGTGTTIVKLVTDGKPVTFFQGQNLGLTTALAVLKSGYVLVGNLPTTNGATITSTGSLLVITPQGKLLSELKDPTLLDGPWDMTVIIDNGQQVTAFVSNVLNGTVARIDLNIGPNGATLLQSSHLIASGYAHRPDPAALVVGPTGLAYDAAHDMLYVASTNDNKVFAIAGAAALAHDNGPGSVIYQDSNHLRGPLALALAPNGDLVTANGDAINPDPNQSSEIVEFTPDGRFVAQMQVDPAPGSAFGLAFGLSSSGQPQFAAVNDSTNTAIVWTLRPVGGN	failed
MPPKTPRKTAATAAAAAAEPPAPPPPPPPEEDPEQDSGPEDLPLVRLEFEETEEPDFTALCQKLKIPDHVRERAWLTWEKVSSVDGVLGGYIQKKKELWGICIFIAAVDLDEMSFTFTELQKNIEISVHKFFNLLKEIDTSTKVDNAMSRLLKKYDVLFALFSKLERTCELIYLTQPSSSISTEINSALVLKVSWITFLLAKGEVLQMEDDLVISFQLMLCVLDYFIKLSPPMLLKEPYKTAVIPINGSPRTPRRGQNRSARIAKQLENDTRIIEVLCKEHECNIDEVKNVYFKNFIPFMNSLGLVTSNGLPEVENLSKRYEEIYLKNKDLDARLFLDHDKTLQTDSIDSFETQRTPRKSNLDEEVNVIPPHTPVRTVMNTIQQLMMILNSASDQPSENLISYFNNCTVNPKESILKRVKDIGYIFKEKFAKAVGQGCVEIGSQRYKLGVRLYYRVMESMLKSEEERLSIQNFSKLLNDNIFHMSLLACALEVVMATYSRSTSQNLDSGTDLSFPWILNVLNLKAFDFYKVIESFIKAEGNLTREMIKHLERCEHRIMESLAWLSDSPLFDLIKQSKDREGPTDHLESACPLNLPLQNNHTAADMYLSPVRSPKKKGSTTRVNSTANAETQATSAFQTQKPLKSTSLSLFYKKVYRLAYLRLNTLCERLLSEHPELEHIIWTLFQHTLQNEYELMRDRHLDQIMMCSMYGICKVKNIDLKFKIIVTAYKDLPHAVQETFKRVLIKEEEYDSIIVFYNSVFMQRLKTNILQYASTRPPTLSPIPHIPRSPYKFPSSPLRIPGGNIYISPLKSPYKISEGLPTPTKMTPRSRILVSIGESFGTSEKFQKINQMVCNSDRVLKRSAEGSNPPKPLKKLRFDIEGSDEADGSKHLPGESKFQQKLAEMTSTRTRMQKQKMNDSMDTSNKEEK	failed
MPPSTLGLTPPFDATLLTTRPPCSRRHISRSPGARRPSPGLLTCLQPNVCPRARSAFLAISNGSRQQSGPARADAFHPVSISPFYFYSDSYEDVFMPITTKLKAVSLGVSLALAGLLVGCNQNDSDPLVKDDAYYRGQAEAMVAKLTLGEKLDLLSGPGYGSANGAINVKQDVPGVAGYINGVLRSADGIDIPALKLADGPAGVRINANRDGDSASYYATAWPIGSLLASSWDVKLVKAVGEAMGDEVRQYGVDILLAPGMNIQRNPLNGRNFEYYSEDPLLTGKIGAAMVNGVESNGVGTTIKHYFGNNSETNRNQINDIGEPRTFREIYLRGFQIAVDEAQPWAVMTSYNKVNGTYVNERRDAVTDLLRGEWKFDGLVMSDWFAGDVANNAYKQVLAGQDLIEPGNVKEQLQQSIEHGDLDEAKVNEAAIHILTQVMKSPSYNQLAISNSPDLIAHAKLARQAGAESMVLLRNDAAALPLAASSTLASFGINQINTYKGGTGSGDVNAASTTTIAQGLAARFPVNEALQSYYRDFYENNKVYHEGQFGAKGYYTCAEAPISGDLAALIANAATTQQAAVISIGRQAGEGADRSSGKGDYLLGDDERALIDAVSSAFHAQGKKVVVVLNVNGVIDTAQWSDKVDGILLAYMAGQETGHAVADVLSGAVNPSGKLAQSFPHSYASVPSAGTFPGEDTDGDGEPDDLYYNEGIYVGYRYYSTFEQAVSYPFGFGLSYTSFSYTSPAIASNTLEGGSAGNLVLTATITNTGAVAGKEAAQVYVTAPEVKLKKPLIELKAFAKTAQLAPGASEQLSFTIPASILASFDEASNQWIVEPGRYSAYISPSSDVSASTPVSFTVSKEIVVSNTTPGALALPAGVDPASVTTITR	failed
MPQAPTLQSFIAGRWFGQHPAQSLRSAIDGHEVARTHEEAPDFAEALAFGRHQGGKALLALDFQQRAQRLKALALYLSGRKEQLYALSHHSGATRADSWIDIEGGNSTLFSYAGLGARELPSGNLLHEGPAQSLSKLGSFAGSHILVPRGGVAVHINAFNFPIWGMLEKFAPCFLAGMPCIVKPASATSYLTEAAMRLMHESGLLPEGSLQLVIGATGDLLDRLQGQDLVTFTGSASTAGRLRANPNLIRHSVPFNAEADSLNCAILAPDVSPDDEEFELFIKEVAREMTVKAGQKCTAIRRAIIPAKQLDAVATRLRERLSKVVVGDPAVEGVRMGALASHEQQRDVAERLQSLLHSSDLLFGARDGFEPRGTNVSQGAFFAPTLLLARDPMAEGGAHDIEAFGPVSTLMAYDDLDQALELASRGKGSLVASLVTKSPAIAAQVIPRAAAWHGRLLVLDRECAGESTGHGSPLPQLKHGGPGRAGGGEELGGLRAVKHYLQRAAIQGSPSMLAAVTGEYVRGAKVLETEVHPFRRYFQDLRIGESLLTHRRTVTEADLVNFGCLSGDHFYMHFDEIAARESQFGKRIAHGYFVLSAAAGLFVSPGPGPVLANYGLDTLRFITPVGIGDTLQARLTCKRKIDQGKLSPQGTPQGVVAWDVEVSNQLGEVVASYDILTLVAKRTE	failed
MPQDPRHPEHQYLDLVKHILENGARRMDRTGTGTLSVFGATMRFSLEDNTFPLLTTRRVFYRGVVEELLFFLRGETDSKVLEKKGVRIWEKNGAKQFLQSVGIDREEGDLGPIYGFQWRHFGARYETSASSYEGKGVDQIASAIAAIRANPASRRIVVSAWNPTDLGSMALPPCHVLFQFNVTDGKLSCAMYQRSGDMGLGVPFNIASYSLLTILVAHLTGLQPGEFVHFLGDAHVYLDHVDSLRQQIQRPPRAFPKLFVSPKGPRTEPEHFQYEDFELVGYDPHPAIKMNMSA	not failed
MPQFFKRTSKIQAIIALRSIAIAIQLLLILFVNLGLAYELPWTPLVSVISLEVLFTFGSYLYYSRNHLSEKKASQKAILVQICADIIFLSLLLFFSGGATNAFVSLLLIPIAIAAVTLTPLLLTVVAFLAIASYSILLWSLPMSVMHGNMQGHFIGMGINFLFSALVVAIVVGKMARSINQQELAIAAYRENLLKQEQVTSLGVASAQVTHQLATPIATVQLLADELSEDFPDNEIVLDMQSQLTRCRDSLSEFRAMVFDIKEQVIKAINCQDLFDEITDNVRVNNPEVSLQLQKNSDEHAKDVTIDADAALLPAILNLINNAIRASKANNSNALSLTCQTIENNWQFTIRDYGKGFTLKKLNELGVKPVNSDQGFGMAVFLSHASLERLGGKLALTNHQEGGALVTLSLPISSLTSGNDYA	failed
MPQITIIVPVYNAERTLERCVRSIQAQTVVNWELLLIDDGSEDYSSKLCDEYAIQDSRIRVFHQVNGGASSARNVGLEYTKGEWVVFCDSDDWVDSNWLELFKNQIDNGTELIVQGFIPHGNLWQSRTGINFHGNVKTGILKLQEENILGFMCTKMYKREIIEQCGLRFDTELVLREDELFMLQYAEYISTIQCMEEGAYHYDMPDFSTKYGNIDLFNMFLKIYVVLKRIFSGEDNLLLQNYENDLTQSLFHSFVMRHDDRCKKLENYRKEVGKRVLGVKSLSQFSKYILAYVPSFQVAYLLLEAKAKIVKSMQLEHHHHHH	not failed
MPQPGLTTPDNDALPWQTTLLLALQHVLVVAATPITSVFLIAKALHFTDTVTASVLSATFLMCGLGAILQSLGVKGVGARLPFIMVPGGAPIAIFVAIALQTNIQTAIGAVILTSLFYFIALPIFRRCLHHFPPFIIGIMLLMVSINLIRLYGGLIIGQPGSADFAHPTSIILSLGTILITLIFALAFSGILRQLAVMFGLLAGTLLGMALGSTDFSGVSHGPLFSFPQLLPFGWPIFDLSASLPLLIYAVISMAEATGQTIATAEIVNSTQNVQQAIPRTIRGDAVMSLLGGIFGTSLIITSGENIGVVRTTNVKSRFVTAAAGGLLILIAIFAPLVRLATCLPGSVVCGTAVIVFSIIGVIGIDMIAREPLHTPGKTYALAMGLAMGMLPILVPGLYQNFPAGVQMVFGNGMAAGTLTAILVNSLFNWSEKRTQARVKS	failed
MPQTKQPNFLFLMADQLTAFALRMYGNGVCRTPNLDRLAARSTRFANMYCNFPLCAPSRVAMLTGRLPSSVGVYDNASEFSAEVPTFLHHLALAGYSTILSGKMHFVGPEQHHGFQERLTTDIYPSDFGWTPDWREEIPIAPTGMNMRSVIEAGECRRSMQIDYDDDVVYRGVQKIYDLGRLHRDRPFFLAVSMTHPHNPYVSTREFLDLYRPEDIDMPAVPPIPFAQQDPHSQRLWYMFRQDEYDVSDAHVRAARHAYYAMVSYVDAQVGRMLDALQAMDLDESTVVVFTADHGDMLGERGLWYKWVHFDPAVRIPLLISAPGRTRPAVRHELASLVDIFPTMLELAGVSVPDDGASPPPDGRSLAQGLGVSQDEPTGVVYGEMNGEGAHAPCLAVRQGWWKLVVAEGDPPLLFNLQDDPHELRNLAGQPATRDIERQLTALVQARWDARRLHQDILHSQARRRLVQQSRLQGDFPAWDYQPFTDASRQYVRAGAQSSPALVKGKLRYPPVAPVAPQHPRPARSNLPE	failed
MPQTLKPDTPAGTPAAGAVAFRRQVLPQDALLVRRVVESTGFFTPEEADVAQELVDEHLMHGAACGYHFVFATEDDDMAGYACYGPTPATEGTYDLYWIAVAPHRQHSGLGRALLAEVVHDVRLTGGRLLFAETSGIRKYAPTRRFYERAGFSAEAVLKAFYRAGDDKIIYRLEVA	not failed
